Measured values from the supplement of paper PMC10724198.
± gives the standard deviation of the averaged measurements.

Experiments:
Saccharomyces cerevisiae [1] = assay: protein stability index of tFT-peptide fusion (C-terminal peptide) (PSI (0-1 scale)); higher = more stable (slower turnover)
Procedure: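 MPS profiling in S. cerevisiae of the tFT-X12 degron library: putative degron peptides plus stable controls, 12 aa, fused to the C-terminus of a sfGFP-mCherry timer. Cells are FACS-sorted into 8 mCherry/sfGFP bins and deep-sequenced. PSI runs from 0 (unstable) to 1 (stable). Backgrounds are wild type, das1Δ and doa10Δ at 30 °C, and wild type, das1Δ, cdc34-1 and cdc53-1 at 37 °C; 2-3 technical replicates each.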

Saccharomyces cerevisiae [2] = assay: as above; conditions: genetic background: wild type; temperature: 30 C
[3] = genetic background: cdc34-1, temperature: 37 C
[4] = genetic background: cdc53-1, temperature: 37 C
[5] = genetic background: das1 deletion, temperature: 30 C
[6] = genetic background: das1 deletion, temperature: 37 C
[7] = genetic background: doa10 deletion, temperature: 30 C
[8] = genetic background: wild type, temperature: 30 C
[9] = genetic background: wild type, temperature: 37 C
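Note: PSI is a weighted mean of sequencing reads over stability bins, variants kept only with over 10 reads, mCherry proximal and sfGFP distal, peptide attached via GGGS linker.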

| Sequence | protein stability index (Saccharomyces cerevisiae [2]) | also measured |
| --- | --- | --- |
| RPPPYSPRLFHN |  | protein stability index (Saccharomyces cerevisiae [1]; [3]): 0.469 ± 0.0049; protein stability index (Saccharomyces cerevisiae [1]; [4]): 0.706 ± 0.031; protein stability index (Saccharomyces cerevisiae [1]; [5]): 0.67 ± 0.031; protein stability index (Saccharomyces cerevisiae [1]; [6]): 0.75 ± 0.01; protein stability index (Saccharomyces cerevisiae [1]; [7]): 0.0941 ± 0.065; protein stability index (Saccharomyces cerevisiae [1]; [8]): 0.129 ± 0.023; protein stability index (Saccharomyces cerevisiae [1]; [9]): 0.179 ± 0.067 |
| GPPVPLSPPLSP |  | protein stability index (Saccharomyces cerevisiae [1]; [3]): 0.701 ± 0.042; protein stability index (Saccharomyces cerevisiae [1]; [4]): 0.695 ± 0.045; protein stability index (Saccharomyces cerevisiae [1]; [5]): 0.35 ± 0.024; protein stability index (Saccharomyces cerevisiae [1]; [6]): 0.5534 ± 0.0029; protein stability index (Saccharomyces cerevisiae [1]; [7]): 0.33 ± 0.0094; protein stability index (Saccharomyces cerevisiae [1]; [8]): 0.341 ± 0.014; protein stability index (Saccharomyces cerevisiae [1]; [9]): 0.532 ± 0.039 |
| WLISLLVQPVFL |  | protein stability index (Saccharomyces cerevisiae [1]; [3]): 0.295 ± 0.0052; protein stability index (Saccharomyces cerevisiae [1]; [4]): 0.3167 ± 0.0022; protein stability index (Saccharomyces cerevisiae [1]; [5]): 0.276 ± 0.029; protein stability index (Saccharomyces cerevisiae [1]; [6]): 0.4053 ± 0.0021; protein stability index (Saccharomyces cerevisiae [1]; [7]): 0.233 ± 0.0031; protein stability index (Saccharomyces cerevisiae [1]; [8]): 0.273 ± 0.02; protein stability index (Saccharomyces cerevisiae [1]; [9]): 0.37 ± 0.0047 |
| KQSGLQIKRRKL |  | protein stability index (Saccharomyces cerevisiae [1]; [3]): 0.711 ± 0.043; protein stability index (Saccharomyces cerevisiae [1]; [4]): 0.75156 ± 0.00069; protein stability index (Saccharomyces cerevisiae [1]; [5]): 0.617 ± 0.019; protein stability index (Saccharomyces cerevisiae [1]; [6]): 0.7734 ± 0.0051; protein stability index (Saccharomyces cerevisiae [1]; [7]): 0.639 ± 0.07; protein stability index (Saccharomyces cerevisiae [1]; [8]): 0.7 ± 0.056; protein stability index (Saccharomyces cerevisiae [1]; [9]): 0.763 ± 0.061 |
| PVLLPPCCLAIV | 0.548 ± 0.026 |  |
| PPPPPLPSPTPP | 0.735 ± 0.024 |  |
| PQLLGWCVGPCR | 0.694 ± 0.024 |  |
| FPPPLPPRLPPP | 0.702 ± 0.0061 |  |
| RVDTRKQNKNSM | 0.693 ± 0.019 |  |
| VWRSERCRRGGV | 0.699 ± 0.15 |  |
| SRYSAVSVSRWH | 0.696 ± 0.041 |  |
| SLAVAPHIATQQ | 0.701 ± 0.011 |  |
| VCGSGGGCWGGG | 0.622 ± 0.0096 |  |
| THCWQVLPCGLI | 0.723 ± 0.0089 |  |
| LPGPDLLSRMAS | 0.659 ± 0.019 |  |
| VRLHVPLQRFMK | 0.73 ± 0.029 |  |
| SSPFSLPSPPLS | 0.676 ± 0.071 |  |
| PTPPCPLVPPRP | 0.72 ± 0.074 |  |
| WGWGVASRCCEG | 0.72 ± 0.042 |  |
| SLVLLSACRFGF | 0.654 ± 0.073 |  |
| GRSGWFGSEGVR | 0.803 ± 0.12 |  |
| KYIKNKKEKTEE | 0.701 ± 0.017 |  |

| Sequence | protein stability index (Saccharomyces cerevisiae [2]) | also measured |
| --- | --- | --- |
| VVYWGFVLGFGA | 0.582 ± 0.055 |  |
| KKKDRENIKNKI | 0.7151 ± 0.0068 |  |
| EVRLGKDKANRI | 0.691 ± 0.067 |  |
| GRRVKTVNSLGL | 0.709 ± 0.061 |  |
| WGAGGGGWGGGV | 0.685 ± 0.024 |  |
| APYSGSAMVIPG | 0.713 ± 0.028 |  |
| AGPPRTAVSPPL | 0.675 ± 0.016 |  |
| EEECSTPWGIRG | 0.635 ± 0.048 |  |
| SCRLALPPSFLS | 0.706 ± 0.024 |  |
| GWLIWRVYGGGG | 0.654 ± 0.014 |  |
| YPPGSPVPPGLP | 0.671 ± 0.0076 |  |
| SPTLSPPPPLAL | 0.667 ± 0.031 |  |
| LRSMSPPPHSLA | 0.688 ± 0.058 |  |
| MATLRVPTLSPD | 0.5743 ± 0.004 |  |
| DYSRCGCRLSGK | 0.677 ± 0.03 |  |
| EFAYQSRYKVGR | 0.694 ± 0.058 |  |
| LLRSEETTIEPF | 0.7531 ± 0.004 |  |
| LPRALLLHGHRP | 0.771 ± 0.067 |  |
| GGRRHQRARLPL | 0.605 ± 0.018 |  |
| RICRWGSRAVVG | 0.685 ± 0.015 |  |
| GGEWGDRRKSGV | 0.647 ± 0.059 |  |
| PPAPPPASPGLV | 0.7017 ± 0.0009 |  |

| Sequence | protein stability index (Saccharomyces cerevisiae [2]) | also measured |
| --- | --- | --- |
| EHLYIYGKDKWK | 0.602 ± 0.025 |  |
| LLCLRGRVTLCP | 0.537 ± 0.031 |  |
| QGAINSKRRPDQ | 0.603 ± 0.045 |  |
| DPARNDTTTETI | 0.666 ± 0.027 |  |
| EGGARGCGEGSQ | 0.656 ± 0.015 |  |
| STLTPLPLRASA | 0.5333 ± 0.005 |  |
| VVFTTLRHPFRG | 0.699 ± 0.027 |  |
| VLSEHRGLPLTR | 0.659 ± 0.066 |  |
| SLGAPPAVVSSY | 0.6822 ± 0.0033 |  |
| SPSRPRPPPHAP | 0.7624 ± 0.00086 |  |
| RSVVLPSFLSPH | 0.699 ± 0.017 |  |
| WSGERCFLGFYR | 0.771 ± 0.087 |  |
| AGGSGGGRDRLV | 0.694 ± 0.024 |  |
| RYPSAPPKISAS | 0.613 ± 0.0083 |  |
| RKKGGNSKKGKN | 0.774 ± 0.12 |  |
| AKEERKVIRKMK | 0.659 ± 0.063 |  |
| LPPPHPPFPPRF | 0.715 ± 0.059 |  |
| PYFQASLSCLPS | 0.744 ± 0.036 |  |
| LITRLLCSPCSQ | 0.605 ± 0.0059 |  |
| KITLKSNKTTDN | 0.741 ± 0.018 |  |
| LCAFPFSHPSSI | 0.74 ± 0.05 |  |
| WPGYLTNVLPVI | 0.65 ± 0.029 |  |

| Sequence | protein stability index (Saccharomyces cerevisiae [2]) | also measured |
| --- | --- | --- |
| EMCRCVEGREEG | 0.6704 ± 0.0036 |  |
| VMWVGAGVSLSC | 0.6411 ± 0.0041 |  |
| PSPPPAPPPQPS | 0.678 ± 0.052 |  |
| ITQTRGPRPLAH | 0.7471 ± 0.0043 |  |
| LLSHLSPCTRIG | 0.606 ± 0.051 |  |
| PSVRQSSPRFLH | 0.667 ± 0.067 |  |
| GPSTVPGHGSDT | 0.689 ± 0.021 |  |
| SLMRRFRGQWRV | 0.71 ± 0.06 |  |
| WVVGCVRGVWGA | 0.712 ± 0.051 |  |
| LSPPLPRAPHLS | 0.678 ± 0.077 |  |
| GWVQRGAEARRE | 0.705 ± 0.047 |  |
| VRFVVVRRFRLP | 0.649 ± 0.0076 |  |
| HIFQRMCKDMQL | 0.6296 ± 0.0037 |  |
| PHAPHPPALTPP | 0.623 ± 0.072 |  |
| GQGEPRRVWGVV | 0.6746 ± 0.005 |  |
| STLPPPSSPFHP | 0.96 ± 0.021 |  |
| SPLPPPSHALLP | 0.712 ± 0.089 |  |
| RVCSGYSRLRFA | 0.561 ± 0.085 |  |
| LPSPPPLISLIP | 0.644 ± 0.12 |  |
